Measured values published in the supplement of paper PMC7125110.
± gives the standard error. Variants at the floor of the assay were thinned out.

B1: glmS ribozyme (parent)
chain: AUAAAAGCGCCAGAACUACAGAAAUGUAGUUGACGAGGAGGAGGUUUAUCGAAUUUUCGGCGGAUGCCUCCAAA

Variants of: B1
Assay: self-cleavage kobs at 10000 uM GlcN6P; higher = faster cleavage; RNA array
Conditions: with glucosamine-6-phosphate
Procedure, shortened: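 Glucosamine-6-phosphate in HEPES/KCl/Mg(OAc)2 buffer, at 40 μM to 10 mM, was flowed over barcoded ribozyme variants transcribed in situ by E. coli RNA polymerase on sequenced MiSeq chips. Tracking was through a hybridised Cy3 probe at 37 °C. kobs, kcat and KM came from exponential decay fits and weighted Michaelis–Menten fits of normalised per-tile medians.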

Variant | self-cleavage kobs at 10000 uM GlcN6P [s⁻¹]
A15C A53U C71G | 0.000151 ± 3.6e-05
U31G G44C | 4.96e-05 ± 1.3e-05
G37C A48G G62U | < 1e-05
G13C A42C C50U | < 1e-05
A33U A53C G62U | < 1e-05
A39G G60A | 2.33e-05 ± 1.2e-05
G38U U56C | < 1e-05
C16U G40C A53C C71U | 0.000561 ± 0.00013
A12U G29A C70A | 9.81e-05 ± 2.5e-05
G35A U54G G62C | < 1e-05
U31G G38C G40C G60C U69A C71A | < 1e-05
A36U G51U C68G | 4.33e-05 ± 1.7e-05
A14C G38C G60U | < 1e-05
C34U G43U U57G U65G | < 1e-05
G35C A42G U45G | < 1e-05
A15C G35C C50G | 4.99e-05 ± 1.2e-05
G32C A36U U69G C70A | 0.000103 ± 2.4e-05
A14C A42C U46G A52G | < 1e-05
C16A A64G C67G C70U | < 1e-05
G29A C34G C67U | < 1e-05
A12G A14C A39C G44U G51U | < 1e-05
C16A C50A U65G | < 1e-05
C34A C58G C68G | 0.000608 ± 0.00016
C16A G35C U65G | < 1e-05

Variant | self-cleavage kobs at 10000 uM GlcN6P [s⁻¹]
G41A A52U | 9.26e-05 ± 1.6e-05
G38A U57C A64U | < 1e-05
G44C C50U U56A | < 1e-05
G13C A15U C58G | 0.000104 ± 1.7e-05
A33C G38U C68U | < 1e-05
G29U G37A C71U | 0.000169 ± 4e-05
A36G G40U C68A | < 1e-05
G13A U46A | 4.05e-05 ± 1.3e-05
A14U A53U U56G C58U | 3.75e-05 ± 8.7e-06
A12G U45A C71U | 0.00191 ± 0.0004
A14G C50G C70U | 9.53e-05 ± 1.4e-05
A15C C16G U56A C61G | < 1e-05
A42U A52G U57A G63C | < 1e-05
G29U G38A A42G U47G C71U | < 1e-05
G13C U47A | 7.19e-05 ± 9.5e-06
G37C A64G C70U | 4.49e-05 ± 1.6e-05
G35U G41U C67G | < 1e-05
A14G A64G C68G | < 1e-05
G43A A52C C58A G66U C67G U69G | < 1e-05
G21U G29C | 0.00256 ± 0.0005
G32A U47G A52G C61G C71G | 6.89e-05 ± 2.1e-05
U31C G35A G40C C58U G60A | < 1e-05
A14C G51U | < 1e-05
A36C A52U C58U G63A | < 1e-05

Variant | self-cleavage kobs at 10000 uM GlcN6P [s⁻¹]
G29C C61G C67G | < 1e-05
G38U G40U G41C U47C G59C C68G | < 1e-05
C34G A64C C67A | < 1e-05
C16A G35U G60U | < 1e-05
C34A G35C A48U | < 1e-05
A14U C19U C58G | 9.16e-05 ± 2.1e-05
C16A G51U U65A | < 1e-05
G13C U49G G59U | < 1e-05
G43C C68U C70G C71U | < 1e-05
A39G U57A C68U | 0.000176 ± 4e-05
A39U A42G U46C | 0.00379 ± 0.00069
A12U C50G G62A C71U | 8.18e-05 ± 2.2e-05
A15U G29C U47G U54A | 0.000122 ± 2.4e-05
A14U C34U C68G | 7.15e-05 ± 2.1e-05
A15G U49A G62U | < 1e-05
A33G G35U A39G A53U G62C | < 1e-05
A39U A48G G60A | < 1e-05
G37C U55A | 4.97e-05 ± 1e-05
G37C U55G | 3.62e-05 ± 8.4e-06
G21U A33U C70U | 0.000159 ± 2.9e-05
A15U A39G G62A | < 1e-05
A14C A39U C67G | 0.000928 ± 0.00017
A12U C16U A42G | 0.0803 ± 0.038
G43A C50A A64U | < 1e-05

Variant | self-cleavage kobs at 10000 uM GlcN6P [s⁻¹]
A33U G44A G63U | < 1e-05
A15U A53U G63C | < 1e-05
C16G G29U C58A | 0.000585 ± 0.00014
G29A C58G | 6.15e-05 ± 1.1e-05
G29A C58U | 4.95e-05 ± 8.6e-06
C16A G35C A64C | < 1e-05
G37U G38A C67U | < 1e-05
A14U A64C | 2.75e-05 ± 1.3e-05
G13A G43U U45G | 6.53e-05 ± 2.3e-05
G13A C50G G66U | 6.48e-05 ± 2.1e-05
U30C U55C C70U | 8.64e-05 ± 1.7e-05
U30G A36G G40U C68A | < 1e-05
A39U A52U U56G | 8.75e-05 ± 1.8e-05
A14C U47G U54C | 0.00121 ± 0.00018
A15U G21U | 0.00395 ± 0.00079
G13C U65A | < 1e-05
G35C G51U G62U | < 1e-05
A12U U30A A39U U55C | 0.0143 ± 0.0028
A36C U46A C58A | < 1e-05
C34U U45A C61U | < 1e-05
A14U G43U G51A | < 1e-05
G40C G59C U65G | < 1e-05
A14U U30G U55G C70A | 3.35e-05 ± 1.5e-05
U30G U47C C68U | 0.000171 ± 3.3e-05

Variant | self-cleavage kobs at 10000 uM GlcN6P [s⁻¹]
G35A G38U A53C C70U | < 1e-05
A39C U47C C70U | 0.000412 ± 0.0001
A12U U47G A52U U69G | 6.72e-05 ± 3e-05
U45C U65G C70U | 0.000225 ± 6.1e-05
C16A G38A A48C | < 1e-05
A15U C50A G51A A53G | < 1e-05
A15U A33C C58A C68A | < 1e-05
U30A U31C A53G | 0.00407 ± 0.0007
U31C G32A U47G C67A | 6.62e-05 ± 1.4e-05
A36G A64C U65G | < 1e-05
A36U G40A G43C A52G | 0.00106 ± 0.00036
C16G U47A U56A U65G | 0.000338 ± 9.1e-05
A33C G35C U47A | < 1e-05
A14G G43U U47A C58A C67A | 7.13e-05 ± 1.3e-05
A15U G41U A48U U55C | < 1e-05
A15C A33U U47C U57G C68U U69C | < 1e-05
G38U A53U U69G | 0.000134 ± 3.5e-05
U31C U45A A52G C68U | 0.000129 ± 3.8e-05
G29A C67U C70U | 6.18e-05 ± 1.1e-05
A39U G43A U47C G59A C67U | < 1e-05
A42G U45A U65C | 0.00105 ± 0.00028
A33U G40A | 4.3e-05 ± 5.8e-06
C16G G32C C70U A73C | 0.000111 ± 1.7e-05
G35U U47A C61U | < 1e-05

Variant | self-cleavage kobs at 10000 uM GlcN6P [s⁻¹]
A14G U47A G59U C70U | 9.51e-05 ± 1.8e-05
G13A G51U G60U | < 1e-05
G37C U45A U54C G63C | < 1e-05
U31G G40U C67A | 6.16e-05 ± 1.3e-05
A42G C58G U69C | 0.000133 ± 3.8e-05
G37C A64C C67G | < 1e-05
G29C G41C A42U | < 1e-05
A12G A42G U47C | 0.000197 ± 3.9e-05
A12G G44U C58G | < 1e-05
U31C G41U A53G | 0.000299 ± 8.8e-05
G26U U49G U56A | 0.00027 ± 6.8e-05
A15U C16G G32C | 8.84e-05 ± 2.6e-05
A14U C16G G32A U56G | 0.000337 ± 5e-05
U31A C34U G44A | < 1e-05
G41C U56C | 3.26e-05 ± 8.9e-06
A33C U46G A52U | < 1e-05
G29U G40A A52C C67A | < 1e-05
G32U A39G U69A | 0.000121 ± 3.2e-05
C16U C50G C67U | 0.000119 ± 2.9e-05
A39G U54A G62U G66A | < 1e-05
G38U G41A U45G U56A G59U | < 1e-05
G32A U55G U65G G66U C70G | 3.69e-05 ± 1.7e-05
G32C G35A G60A | < 1e-05
G40A A64U | 2.07e-05 ± 9.5e-06

Variant | self-cleavage kobs at 10000 uM GlcN6P [s⁻¹]
A39G U45C C67A | 0.00692 ± 0.0024
A12U G40U U54A | 0.000861 ± 0.00024
A12U G13C A52U G60A A64C | < 1e-05
C16A G41A G51C | < 1e-05
A12G G29A G63A | < 1e-05
A39C U55G C70U | 0.000211 ± 4e-05
U30A A48G C68A | < 1e-05
G29U G37A C67U | 5.27e-05 ± 1.5e-05
A14G A15G A48C | 0.00148 ± 0.00029
G32U U57A C68G | 6.42e-05 ± 2.1e-05
G32U U57G | 5.4e-05 ± 1.4e-05
A15G G32C G59C | < 1e-05
A14G C58U C71U | 0.00012 ± 2.1e-05
C16A G32U A33U C50G C67U | 0.000275 ± 9.8e-05
G35C A48G G59U G60A | < 1e-05
U45A G62A | < 1e-05
G29C G32C A39G | 7.25e-05 ± 1.8e-05
U45C C50G U54A | < 1e-05
A14U G37C G59C C67U | < 1e-05
A12G G41U C70U | 0.00122 ± 0.00022
G32C U54A U56G | 3.42e-05 ± 1.1e-05
U45G C58A G66U | 8.19e-05 ± 1.6e-05
G13U A39G C68U | 0.000334 ± 8.3e-05
